In patent US10059928B2, “Polymerases” (Illumina Cambridge Limited, priority 2005, dated 2018):

Experiments:
[1] = biological target: DNA; conditions: wild-type enzyme; Southworth et al. 1996; read-out: Kd (affinity for DNA); cited from earlier work
[2] = tested on: 10A hairpin DNA; test: Single base incorporation assay for purified polymerases where [DNA] is greater than [pol]; format: biochemical; conditions: 4 nM purified enzyme, 2 μM ffT-N3-cy3
Method: The activity of the purified enzyme preparations of Clone 9 polymerase (YAV C223S exo-) and the thumb sub-domain mutants K705A, R713A and R743A was measured using the single base incorporation assay as described in WO 2005/024010. The experiment was carried out such that the respective concentrations of DNA and polymerase were at a ratio of approximately 5:1. Thus, the ability of the enzyme to incorporate nucleotides into multiple DNA template molecules in a single reaction cycle was investigated. 30 minute incubations were run with 4 nM purified enzyme in the presence of 20 nM 10A hairpin DNA (^32P-labelled) and 2 μM ffT-N3-cy3, aliquots of the reaction mixture were withdrawn at 0, 15, 30, 60, 180, 480, 900 and 1800 s intervals and run on a 12% acrylamide gel.
The band intensities were quantified using Imagequant and the fluorescence intensity, converted into percentage completion (based on the relative intensities of the starting material and final product bands on the gel) plotted versus incubation time to generate the timecourses shown in FIG. 5.

[3] = tested on: surface-coupled A-template hairpin (oligo 815); test: NUNC tube assay using crude protein preparation: incorporation of ffTTP into surface-coupled hairpin; format: biochemical; conditions: crude enzyme, 5 μM ffT-N3-647, 45° C., 30 minutes; samples not normalised for concentration
Method: Small 5 ml cultures of the mutant enzymes (along with a culture of YAV C223S exo- for direct comparison) were taken through a quick purification as outlined in WO 2005/024010 up until the heat treatment step. At this point, the samples were considered to be sufficiently pure to test their activity.
The buffers for each of the crude preparations were exchanged into enzymology buffer (50 mM Tris pH 8.0, 6 mM MgSO4, 1 mM EDPA, 0.05% Tween20) using an S300 gel filtration spin-column. The samples were not normalised for concentration. The test employed was a simple incorporation of ffTTP into surface-coupled A-template hairpin. 2 pmoles of 5′-amino oligo 815 (5′-[…] […]-3′) (SEQ ID NO: 17) was coupled to a NUNC-nucleolink strip according to the manufacturers protocol.
Once washed, each well was incubated with a 20 µl aliquot of a crude enzyme preparation (identity of enzyme listed below) and 5 µM ffT-N3-647. The strip was then incubated at 45° C. for 30 minutes. The experiment was performed in duplicate. Upon completion of the 30 minute incubation, wells were washed with 3×100 µl of high salt wash buffer (10 mM Tris pH 8.0, 1M NaCl, 10 mM EDTA) and then 3×100 µl of MilliQ water. Strips were scanned on a typhoon fluorescence imager CY5 filter, PMT=450 V).
The fluorescence density is proportional to the amount of ffTTP incorporation—the darker the well, the greater the level of incorporation. […]

[4] = tested on: 10A hairpin DNA; test: Single base incorporation assay, crude enzyme preparations (normalised concentrations); format: biochemical; conditions: first base incorporation of ffTTP
Method: The activity of the crude enzyme preparations (normalised concentrations) was measured using the single base incorporation assay as described in WO 2005/024010. 10 minute incubations were run with either 30 or 3 μg/ml crude enzyme preparation in the presence of 2 μM ffT-N3-cy3 and 20 nM 10A hairpin DNA (^32P-labelled), aliquots of the reaction mixture were withdrawn at 0, 30, 60, 180 and 600 s and run on a 12% acrylamide gel.
The band intensities were quantified using Imagequant and the fluorescence intensity plotted versus incubation time to generate the time-courses shown in FIG. 4.

[5] = tested on: ffT-N3-cy3 incorporation into A template hairpin oligo 815; test: Incorporation kinetics of ffT-N3-cy3 (NUNC tube assay, Michaelis plots); format: biochemical; conditions: 45° C., [DNA]<<[pol] or [ffNTP]
Method: The kinetic characterization of the enzymes was conducted using NUNC tube assay and involved the measurement of rate constants for the first order incorporation of ffT N3 cy3 where [DNA]<<[pol] or [ffNTP], at a variety of [ffTTP]. Below is described the methodology used for each of the three polymerases tested.
Six (1×8) NUNC nucleolink strips were functionalized with 2 pmoles of 5′-amino A template hairpin oligo 815 (5′ H2N-[…] ATGCACATCAGCG-3′) (SEQ ID NO: 18), according to the manufacturer's protocol.
Each strip was employed for a time-course experiment at a particular (ffT-N3-cy3). […]
Time-courses were initiated by addition of a 20 μl aliquot of 2× enzymology mix (X μM ffT-N3-cy3, 1.1 μM polymerase in enzymology buffer) pre-equilibrated at 45° C. for 2 minutes using an 8-channel multipipette in order to start reactions in individual wells at identical time-points. […] After reactions in all 8 wells stopped, strips were washed with […] high salt wash (10 mM Tris pH 8.0, 1 M NaCl, 10 mM EDTA) and then […] MilliQ water and then scanned on a Typhoon fluorescence imager (Cy3 filter, PMT=500 V). Fluorescence intensities in each well were quantified using Imagequant. Plotting the variation in Cy3 fluorescence intensity vs. time generates time-course graphs. […]

Molecule	Kd [1] [nM]	amplitude of the burst (exponential) phase, percentage completion ([2]; 20 nM 10A hairpin DNA (ratio 5:1)) [%]	observed rate constant kobs for the burst phase ([2]; crude fitting of timecourses, 20 nM 10A hairpin DNA) [s⁻¹]	improvement in level of incorporation over clone 9 [3] [%]	activity relative to YAV (in words) [4]	kpol [5] [s⁻¹]
wild-type 9°N-7 polymerase: Wild-type family B DNA polymerase from Thermococcus sp. 9°N-7 (protein, UniProt Q56366 1-775, looked up) DNA polymerase: MILDTDYITENGKPVIRVFKKENGEFKIEYDRTFEPYFYALLKDDSAIEDVKKVTAKRHGTVVKVKRAEKVQKKFLGRPIEVWKLYFNHPQDVPAIRDRIRAHPAVVDIYEYDIPFAKRYLIDKGLIPMEGDEELTMLAFDIETLYHEGEEFGTGPILMISYADGSEARVITWKKIDLPYVDVVSTEKEMIKRFLRVVREKDPDVLITYNGDNFDFAYLKKRCEELGIKFTLGRDGSEPKIQRMGDRFAVEVKGRIHFDLYPVIRRTINLPTYTLEAVYEAVFGKPKEKVYAEEIAQAWESGEGLERVARYSMEDAKVTYELGREFFPMEAQLSRLIGQSLWDVSRSSTGNLVEWFLLRKAYKRNELAPNKPDERELARRRGGYAGGYVKEPERGLWDNIVYLDFRSLYPSIIITHNVSPDTLNREGCKEYDVAPEVGHKFCKDFPGFIPSLLGDLLEERQKIKRKMKATVDPLEKKLLDYRQRAIKILANSFYGYYGYAKARWYCKECAESVTAWGREYIEMVIRELEEKFGFKVLYADTDGLHATIPGADAETVKKKAKEFLKYINPKLPGLLELEYEGFYVRGFFVTKKKYAVIDEEGKITTRGLEIVRRDWSEIAKETQARVLEAILKHGDVEEAVRIVKEVTEKLSKYEVPPEKLVIHEQITRDLRDYKATGPHVAVAKRLAARGVKIRPGTVISYIVLKGSGRIGDRAIPADEFDPTKHRYDAEYYIENQVLPAVERILKAFGYRKEDLRYQKTKQVGLGAWLKVKGKK	0.05					
R743A: 9°N-7 YAV C223S exo- polymerase with alanine substitution at Arg743 in the thumb subdomain (protein, Codon optimised thumb mutant polymerase, 9°N-7 YAV C223S exo- polymerase with alanine substitution at Arg743 in the thumb subdomain) MILDTDYITENGKPVIRVFKKENGEFKIEYDRTFEPYFYALLKDDSAIEDVKKVTAKRHGTVVKVKRAEKVQKKFLGRPIEVWKLYFNHPQDVPAIRDRIRAHPAVVDIYEYDIPFAKRYLIDKGLIPMEGDEELTMLAFSISTLYHEGEEFGTGPILMISYADGSEARVITWKKIDLPYVDVVSTEKEMIKRFLRVVREKDPDVLITYNGDNFDFAYLKKRSEELGIKFTLGRDGSEPKIQRMGDRFAVEVKGRIHFDLYPVIRRTINLPTYTLEAVYEAVFGKPKEKVYAEEIAQAWESGEGLERVARYSMEDAKVTYELGREFFPMEAQLSRLIGQSLWDVSRSSTGNLVEWFLLRKAYKRNELAPNKPDERELARRRGGYAGGYVKEPERGLWDNIVYLDFRSYAVSIIITHNVSPDTLNREGCKEYDVAPEVGHKFCKDFPGFIPSLLGDLLEERQKIKRKMKATVDPLEKKLLDYRQRLIKILANSFYGYYGYAKARWYCKECAESVTAWGREYIEMVIRELEEKFGFKVLYADTDGLHATIPGADAETVKKKAKEFLKYINPKLPGLLELEYEGFYVRGFFVTKKKYAVIDEEGKITTRGLEIVRRDWSEIAKETQARVLEAILKHGDVEEAVRIVKEVTEKLSKYEVPPEKLVIHEQITRDLRDYKATGPHVAVAKRLAARGVKIRPGTVISYIVLKGSGRIGDRAIPADEFDPTKHRYDAEYYIENQVLPAVEAILKAFGYRKEDLRYQKTKQVGLGAWLKVKGKK		~90	~0.004	~45	comparable activities to YAV	0.068
